{"source": "patent US20240082183", "proteins": {"B1": {"name": "recombinant mouse Granzyme B (protein)", "chain": "IIGGHEVKPHSRPYMALLSIKDQQPEAICGGFLIREDFVLTAAHCEGSIINVTLGAHNIKEQEKTQQVIPMVKCIPHPDYNPKTFSNDIMLLKLKSKAKRTRAVRPLNLPRRNVNVKPGDVCYVAGWGRMAPMGKYSNTLQEVELTVQKDRECESYFKNRYNKTNQICAGDPKTKRASFRGDSGGPLVCKKVAAGIVSYGYKDGSPPRAFTKVSSFLSWIKKTMKSS"}}, "key": {"[1]": {"biological_target": "mutated SDHA protein with His Tag (mouse; Ile-Glu-Asp-Gly changed to Ile-Glu-Ala-Gly at the putative GzmB cleavage site), Q8K2B3", "sequence (Q8K2B3 whole entry, looked up, change not shown)": "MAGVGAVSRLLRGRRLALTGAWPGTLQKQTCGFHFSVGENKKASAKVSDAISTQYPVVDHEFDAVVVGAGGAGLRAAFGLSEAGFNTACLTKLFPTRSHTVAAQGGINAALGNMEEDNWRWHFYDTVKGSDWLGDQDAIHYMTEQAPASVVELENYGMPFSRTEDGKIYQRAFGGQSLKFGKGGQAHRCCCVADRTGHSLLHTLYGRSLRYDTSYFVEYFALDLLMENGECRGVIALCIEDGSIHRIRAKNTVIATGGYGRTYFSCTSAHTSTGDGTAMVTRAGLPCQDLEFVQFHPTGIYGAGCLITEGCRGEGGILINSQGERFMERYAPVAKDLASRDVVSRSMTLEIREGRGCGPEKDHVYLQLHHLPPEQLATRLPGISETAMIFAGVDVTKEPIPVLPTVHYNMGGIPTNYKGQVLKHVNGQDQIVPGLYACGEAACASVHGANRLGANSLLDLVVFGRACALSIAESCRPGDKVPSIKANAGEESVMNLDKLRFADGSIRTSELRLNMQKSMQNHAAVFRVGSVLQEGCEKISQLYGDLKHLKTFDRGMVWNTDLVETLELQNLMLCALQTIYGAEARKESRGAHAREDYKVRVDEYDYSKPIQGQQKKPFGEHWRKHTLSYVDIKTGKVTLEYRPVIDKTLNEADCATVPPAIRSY"}, "[2]": {"biological_target": "Serpin 3A"}, "[3]": {"biological_target": "SDHA (endogenous, in mitochondria isolated from mouse IECs and in C57BL/6 primary colonic epithelial cells), Q8K2B3", "sequence (Q8K2B3 43-664)": "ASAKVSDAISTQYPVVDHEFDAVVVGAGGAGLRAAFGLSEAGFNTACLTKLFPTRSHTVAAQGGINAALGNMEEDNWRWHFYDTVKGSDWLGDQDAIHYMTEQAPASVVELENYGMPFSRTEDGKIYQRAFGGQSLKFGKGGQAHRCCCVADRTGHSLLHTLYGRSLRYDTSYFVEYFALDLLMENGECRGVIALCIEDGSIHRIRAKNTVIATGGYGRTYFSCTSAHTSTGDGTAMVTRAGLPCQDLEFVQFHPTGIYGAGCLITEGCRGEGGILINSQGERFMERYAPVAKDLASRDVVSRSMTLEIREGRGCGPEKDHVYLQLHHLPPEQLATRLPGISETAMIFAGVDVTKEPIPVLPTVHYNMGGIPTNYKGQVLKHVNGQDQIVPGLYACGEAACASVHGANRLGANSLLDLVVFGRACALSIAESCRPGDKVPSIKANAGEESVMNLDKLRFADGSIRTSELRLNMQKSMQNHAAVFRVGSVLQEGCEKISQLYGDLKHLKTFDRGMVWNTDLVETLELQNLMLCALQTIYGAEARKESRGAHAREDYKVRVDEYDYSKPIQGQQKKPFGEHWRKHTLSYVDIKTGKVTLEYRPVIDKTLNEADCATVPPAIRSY"}}}
{"protein": "B1", "values": [{"measurement": "proteolysis of mutated SDHA protein (anti-His immunoblot, 6 hours)", "setting": "[1]", "value": "the mutation of the cleavage site prevented proteolysis of SDHA by GzmB"}, {"measurement": "proteolysis of SDHA by GzmB in PCECs treated with perforin, Granzyme B and Serpin 3A for 6 hours (immunoblot of SDHA)", "setting": "[2]", "value": "The presence of Serpin 3A prevented the proteolysis of SDHA by GzmB"}, {"measurement": "proteolysis of SDHA in isolated IEC mitochondria (immunoblot of full length and cleaved SDHA)", "setting": "[3]", "value": "Treatment with GzmB caused proteolysis of SDHA with a reduction in SDHA with an increase in SDHA cleaved fragments"}]}
